The values that follow come from patent publication US20240092919A1.

In the assay the target is human GPC3 on cells (human) (UniProt P51654). Nature of the assay: cell-based or functional assay.

B1: A022600174 (protein)
chain: DVQLVESGGGVVQPGGSLRLSCVASGYVHKINFYGWYRQAPGKEREKVAHISIGDQTDYADSAKGRFTISRDESKNTVYLQMNSLRPEDTAAYYCRALSRIWPYDYWGQGTLVTVSSGGGGSEVQLVESGGGLVQPGGSLRLSCVASGFTFSSFAMTWVRRPPGKGLEWVATITNGGVTSYRDSVKGRFTISRDNAKNTLYLEMTSLNPEDTAVYICANARRTGPRAPTDIGSYRGQGTLVTVSSGGGGSGGGSEVQLVESGGGLVQPGGSLRLSCVASGSIFRSVFSSSTMEWYRQPPGKKRELVARIAPGDGTNYGALYADSVKGRFTISRDDAKKTVDLQMNSLKPEDTGVYFCASGVAWGQGTLVTVSSGGGGSGGGSEVQLVESGGGVVQPGGSLRLSCAASGFTFRSFGMSWVRQAPGKGPEWVSSISGSGSDTLYADSVKGRFTISRDNSKNTLYLQMNSLRPEDTALYYCTIGGSLSRSSQGTLVTVSSA
In turn, B1 showed a HepG2 on Incucyte IC50 (M), human TDC, E:T 15:1, 60 h of 6.73e-10 M; a HepG2 on Incucyte Max % killing, 60 h of 96%; a Huh7 on xCELLigence IC50 (M), human TDC, E:T 15:1, 60 h of 6.26e-11 M; a Huh7 on xCELLigence Max % killing, 60 h of 99%.

B2: A022600169 (protein)
chain: DVQLVESGGGLVQPGGSLRLSCVASGFTFSSFAMTWVRRPPGKGLEWVATITNGGVTSYRDSVKGRFTISRDNAKNTLYLEMTSLNPEDTAVYICANARRTGPRAPTDIGSYRGQGTLVTVSSGGGGSEVQLVESGGGVVQPGGSLRLSCVASGYVHKINFYGWYRQAPGKEREKVAHISIGDQTDYADSAKGRFTISRDESKNTVYLQMNSLRPEDTAAYYCRALSRIWPYDYWGQGTLVTVSSGGGGSEVQLVESGGGLVQPGGSLRLSCVASGSIFRSVFSSSTMEWYRQPPGKKRELVARIAPGDGTNYGALYADSVKGRFTISRDDAKKTVDLQMNSLKPEDTGVYFCASGVAWGQGTLVTVSSGGGGSGGGGSGGGGSGGGGSGGGGSGGGGSGGGGSEVQLVESGGGVVQPGGSLRLSCAASGFTFRSFGMSWVRQAPGKGPEWVSSISGSGSDTLYADSVKGRFTISRDNSKNTLYLQMNSLRPEDTALYYCTIGGSLSRSSQGTLVTVSSA
In the case of B2, the HepG2 on Incucyte IC50 (M), human TDC, E:T 15:1, 60 h was found to be 6.41e-10 M; the HepG2 on Incucyte Max % killing, 60 h is 81%; the Huh7 on xCELLigence IC50 (M), human TDC, E:T 15:1, 60 h came to 1.02e-09 M; the Huh7 on xCELLigence Max % killing, 60 h stood at 61%.

B3: A022600135 (protein)
chain: DVQLVESGGGVVQPGGSLRLSCVASGYVHKINFYGWYRQAPGKEREKVAHISIGDQTDYADSAKGRFTISRDESKNTVYLQMNSLRPEDTALYYCRALSRIWPYDYWGQGTLVTVSSGGGGSEVQLVESGGGLVQPGGSLRLSCVASGSIFRSVFSSSTMEWYRQPPGKKRELVARIAPGDGTNYGALYADSVKGRFTISRDDAKKTVDLQMNSLKPEDTGVYFCASGVAWGQGTLVTVSSGGGGSGGGSEVQLVESGGGLVQPGGSLRLSCVASGFTFSSFAMTWVRRPPGKGLEWVATITNGGVTSYRDSVKGRFTISRDNAKNTLYLEMTSLNPEDTAVYICANARRTGPRAPTDIGSYRGQGTLVTVSSGGGGSGGGGSGGGGSGGGGSGGGGSGGGGSGGGGSEVQLVESGGGVVQPGGSLRLSCAASGFTFRSFGMSWVRQAPGKGPEWVSSISGSGSDTLYADSVKGRFTISRDNSKNTLYLQMNSLRPEDTALYYCTIGGSLSRSSQGTLVTVSSA
As to B3, the IC50 (M), Incucyte human TDC HepG2-Nuclight green assay, E:T 15:1 (Step 2) turned out to be 6.11e-10 M and the Max % Killing, Incucyte human TDC HepG2-Nuclight green assay (Step 2) worked out at 91%.

B4: A022600175 (protein)
chain: DVQLVESGGGVVQPGGSLRLSCVASGYVHKINFYGWYRQAPGKEREKVAHISIGDQTDYADSAKGRFTISRDESKNTVYLQMNSLRPEDTAAYYCRALSRIWPYDYWGQGTLVTVSSGGGGSEVQLVESGGGLVQPGGSLRLSCVASGFTFSSFAMTWVRRPPGKGLEWVATITNGGVTSYRDSVKGRFTISRDNAKNTLYLEMTSLNPEDTAVYICANARRTGPRAPTDIGSYRGQGTLVTVSSGGGGSGGGSEVQLVESGGGLVQPGGSLRLSCVASGSIFRSVFSSSTMEWYRQPPGKKRELVARIAPGDGTNYGALYADSVKGRFTISRDDAKKTVDLQMNSLKPEDTGVYFCASGVAWGQGTLVTVSSGGGGSGGGGSGGGGSGGGGSGGGGSGGGGSGGGGSEVQLVESGGGVVQPGGSLRLSCAASGFTFRSFGMSWVRQAPGKGPEWVSSISGSGSDTLYADSVKGRFTISRDNSKNTLYLQMNSLRPEDTALYYCTIGGSLSRSSQGTLVTVSSA
With B4, the HepG2 on Incucyte IC50 (M), human TDC, E:T 15:1, 60 h was 5.27e-10 M; the HepG2 on Incucyte Max % killing, 60 h is 96%; the Huh7 on xCELLigence IC50 (M), human TDC, E:T 15:1, 60 h amounted to 5.86e-11 M; the Huh7 on xCELLigence Max % killing, 60 h came to 99%.

B5: A022600168 (protein)
chain: DVQLVESGGGVVQPGGSLRLSCVASGYVHKINFYGWYRQAPGKEREKVAHISIGDQTDYADSAKGRFTISRDESKNTVYLQMNSLRPEDTAAYYCRALSRIWPYDYWGQGTLVTVSSGGGGSEVQLVESGGGLVQPGGSLRLSCVASGFTFSSFAMTWVRRPPGKGLEWVATITNGGVTSYRDSVKGRFTISRDNAKNTLYLEMTSLNPEDTAVYICANARRTGPRAPTDIGSYRGQGTLVTVSSGGGGSGGGGSGGGGSGGGGSGGGGSGGGGSGGGGSEVQLVESGGGLVQPGGSLRLSCVASGSIFRSVFSSSTMEWYRQPPGKKRELVARIAPGDGTNYGALYADSVKGRFTISRDDAKKTVDLQMNSLKPEDTGVYFCASGVAWGQGTLVTVSSGGGGSGGGGSGGGGSGGGGSGGGGSGGGGSGGGGSEVQLVESGGGVVQPGGSLRLSCAASGFTFRSFGMSWVRQAPGKGPEWVSSISGSGSDTLYADSVKGRFTISRDNSKNTLYLQMNSLRPEDTALYYCTIGGSLSRSSQGTLVTVSSA
The molecule B5 displayed a HepG2 on Incucyte IC50 (M), human TDC, E:T 15:1, 60 h of 3.67e-10 M; a HepG2 on Incucyte Max % killing, 60 h of 103%; a Huh7 on xCELLigence IC50 (M), human TDC, E:T 15:1, 60 h of 1.98e-10 M; a Huh7 on xCELLigence Max % killing, 60 h of 107%. The IC50 (M), xCELLigence human TDC assay on Hep-G2, E:T 15:1, 60 h was determined as 7.3e-11 M; the IC50 (M), xCELLigence human TDC assay on Huh-7, E:T 15:1, 60 h was 2.4e-11 M; the IC50 (M), xCELLigence human TDC assay on NCI-H661, E:T 15:1, 75 h stood at 1.4e-10 M.

B6: A022600179 (protein)
chain: DVQLVESGGGVVQPGGSLRLSCVASGYVHKINFYGWYRQAPGKEREKVAHISIGDQTDYADSAKGRFTISRDESKNTVYLQMNSLRPEDTAAYYCRALSRIWPYDYWGQGTLVTVSSGGGGSEVQLVESGGGLVQPGGSLRLSCVASGFTFSSFAMTWVRRPPGKGLEWVATITNGGVTSYRDSVKGRFTISRDNAKNTLYLEMTSLNPEDTAVYICANARRTGPRAPTDIGSYRGQGTLVTVSSGGGGSGGGSEVQLVESGGGVVQPGGSLRLSCAASGFTFRSFGMSWVRQAPGKGPEWVSSISGSGSDTLYADSVKGRFTISRDNSKNTLYLQMNSLRPEDTALYYCTIGGSLSRSSQGTLVTVSSA
For the molecule B6, the HepG2 on Incucyte IC50 (M), human TDC, E:T 15:1, 60 h worked out at 2.92e-09 M; the HepG2 on Incucyte Max % killing, 60 h amounted to 76%; the Huh7 on xCELLigence IC50 (M), human TDC, E:T 15:1, 60 h worked out at 6.13e-09 M; the Huh7 on xCELLigence Max % killing, 60 h amounted to 66%.

B7: A022600170 (protein)
chain: DVQLVESGGGVVQPGGSLRLSCVASGYVHKINFYGWYRQAPGKEREKVAHISIGDQTDYADSAKGRFTISRDESKNTVYLQMNSLRPEDTAAYYCRALSRIWPYDYWGQGTLVTVSSGGGGSEVQLVESGGGLVQPGGSLRLSCVASGFTFSSFAMTWVRRPPGKGLEWVATITNGGVTSYRDSVKGRFTISRDNAKNTLYLEMTSLNPEDTAVYICANARRTGPRAPTDIGSYRGQGTLVTVSSGGGGSGGGGSGGGGSGGGGSGGGGSGGGGSGGGGSEVQLVESGGGLVQPGGSLRLSCVASGSIFRSVFSSSTMEWYRQPPGKKRELVARIAPGDGTNYGALYADSVKGRFTISRDDAKKTVDLQMNSLKPEDTGVYFCASGVAWGQGTLVTVSSGGGGSGGGSEVQLVESGGGVVQPGGSLRLSCAASGFTFRSFGMSWVRQAPGKGPEWVSSISGSGSDTLYADSVKGRFTISRDNSKNTLYLQMNSLRPEDTALYYCTIGGSLSRSSQGTLVTVSSA
B7 showed a HepG2 on Incucyte IC50 (M), human TDC, E:T 15:1, 60 h of 3.19e-10 M; a HepG2 on Incucyte Max % killing, 60 h of 97%; a Huh7 on xCELLigence IC50 (M), human TDC, E:T 15:1, 60 h of 1.86e-10 M; a Huh7 on xCELLigence Max % killing, 60 h of 103%.

B8: A022600172 (protein)
chain: DVQLVESGGGVVQPGGSLRLSCVASGYVHKINFYGWYRQAPGKEREKVAHISIGDQTDYADSAKGRFTISRDESKNTVYLQMNSLRPEDTAAYYCRALSRIWPYDYWGQGTLVTVSSGGGGSEVQLVESGGGLVQPGGSLRLSCVASGFTFSSFAMTWVRRPPGKGLEWVATITNGGVTSYRDSVKGRFTISRDNAKNTLYLEMTSLNPEDTAVYICANARRTGPRAPTDIGSYRGQGTLVTVSSGGGGSGGGSEVQLVESGGGVVQPGGSLRLSCAASGFTFRSFGMSWVRQAPGKGPEWVSSISGSGSDTLYADSVKGRFTISRDNSKNTLYLQMNSLRPEDTALYYCTIGGSLSRSSQGTLVTVSSGGGGSGGGSEVQLVESGGGLVQPGGSLRLSCVASGSIFRSVFSSSTMEWYRQPPGKKRELVARIAPGDGTNYGALYADSVKGRFTISRDDAKKTVDLQMNSLKPEDTGVYFCASGVAWGQGTLVTVSSA
Molecule B8 showed a HepG2 on Incucyte IC50 (M), human TDC, E:T 15:1, 60 h of 6.01e-10 M; a HepG2 on Incucyte Max % killing, 60 h of 81%; a Huh7 on xCELLigence IC50 (M), human TDC, E:T 15:1, 60 h of 6.7e-11 M; a Huh7 on xCELLigence Max % killing, 60 h of 90%.

B9: A022600167 (protein)
chain: DVQLVESGGGVVQPGGSLRLSCVASGYVHKINFYGWYRQAPGKEREKVAHISIGDQTDYADSAKGRFTISRDESKNTVYLQMNSLRPEDTAAYYCRALSRIWPYDYWGQGTLVTVSSGGGGSEVQLVESGGGLVQPGGSLRLSCVASGFTFSSFAMTWVRRPPGKGLEWVATITNGGVTSYRDSVKGRFTISRDNAKNTLYLEMTSLNPEDTAVYICANARRTGPRAPTDIGSYRGQGTLVTVSSGGGGSGGGGSGGGGSGGGGSGGGGSGGGGSGGGGSEVQLVESGGGVVQPGGSLRLSCAASGFTFRSFGMSWVRQAPGKGPEWVSSISGSGSDTLYADSVKGRFTISRDNSKNTLYLQMNSLRPEDTALYYCTIGGSLSRSSQGTLVTVSSA
For B9, the HepG2 on Incucyte IC50 (M), human TDC, E:T 15:1, 60 h came to 1.92e-09 M; the HepG2 on Incucyte Max % killing, 60 h is 98%; the Huh7 on xCELLigence IC50 (M), human TDC, E:T 15:1, 60 h came out at 8.61e-09 M; the Huh7 on xCELLigence Max % killing, 60 h came out at 91%. The same molecule gave an IC50 (M), xCELLigence human TDC assay on Hep-G2, E:T 15:1, 60 h of 9.2e-11 M; an IC50 (M), xCELLigence human TDC assay on Huh-7, E:T 15:1, 60 h of 4.7e-10 M; an IC50 (M), xCELLigence human TDC assay on NCI-H661, E:T 15:1, 75 h of 1.8e-10 M.
